Measurements published in US20240417469A1 (CONCEPT TO MEDICINE BIOTECH, published 2024).
Residue numbers refer to the chain shown, from its start.

B1: Hu153A6B1-10 (antibody, V domains shown)
VH: EVQLQESGPGLVKPSETLSLTCTVSGGSISSYNIHWVRQPPGKGLEWMGRIRYNGDTSYNSALKSRLTISRDTSKNQFSLKLSSVTAADTAVYYCTRGPYGGSREPLFDYWGQGTMVTVSS
VL: DIQMTQSPSSLSASVGDRVTITCKTSQNINKYLNWFQQKPGKAPKLLIYTTNNLQTGIPSRFSGSGSGTDFTLTISSLQPEDFATYYCLQHGSGYTFGQGTKLEIK
notes: humanized mAb
B2: Hu153A6B1-11 (antibody, V domains shown)
VH: B1 VH with G27F, F78V
VL: B1 VL
notes: humanized mAb
B3: Hu153A6B1-12 (antibody, V domains shown)
VH: B1 VH with G27F, I29L, S30T, F78V
VL: B1 VL
notes: humanized mAb
B4: Hu153A6B1-13 (antibody, V domains shown)
VH: B1 VH with V37I, M48I, L67V, R71V, T96A
VL: B1 VL with Y87F
notes: humanized mAb
B5: Hu153A6B1-14 (antibody, V domains shown)
VH: B1 VH with M48I, L67V, T96A
VL: B1 VL with Y87F
notes: humanized mAb
B6: Hu153A6B1-15 (antibody, V domains shown)
VH: B1 VH with T96A
VL: B1 VL with Y87F
notes: humanized mAb
B7: Hu153A6B1-16 (antibody, V domains shown)
VH: B1 VH
VL: B1 VL with Y87F
notes: humanized mAb
B8: Hu153A6B1-17 (antibody, V domains shown)
VH: B1 VH with G27F, F78V
VL: B1 VL with Y87F
notes: humanized mAb
B9: Hu153A6B1-18 (antibody, V domains shown)
VH: B1 VH with G27F, I29L, S30T, F78V
VL: B1 VL with Y87F
notes: humanized mAb
B10: Hu155A9B1-1 (antibody, V domains shown)
VH: B1 VH with I34V, V37I, M48I, I51V, L67V, R71V, T96A, R104S
VL: B1 VL with T25A, F36Y, K45R, I58V, G92N
notes: humanized mAb
B11: Hu155A9B1-2 (antibody, V domains shown)
VH: B1 VH with I34V, M48I, I51V, L67V, T96A, R104S
VL: B1 VL with T25A, F36Y, K45R, I58V, G92N
notes: humanized mAb
B12: Hu155A9B1-4 (antibody, V domains shown)
VH: B1 VH with I34V, I51V, R104S
VL: B1 VL with T25A, F36Y, K45R, I58V, G92N
notes: humanized mAb
B13: Hu155A9B1-5 (antibody, V domains shown)
VH: B1 VH with G27F, I34V, I51V, F78A, R104S
VL: B1 VL with T25A, F36Y, K45R, I58V, G92N
notes: humanized mAb; also called 155z5
B14: Hu155A9B1-7 (antibody, V domains shown)
VH: B1 VH with I34V, V37I, M48I, I51V, L67V, R71V, T96A, R104S
VL: B1 VL with T25A, K45R, G92N
notes: humanized mAb
B15: Hu155A9B1-8 (antibody, V domains shown)
VH: B1 VH with I34V, M48I, I51V, L67V, T96A, R104S
VL: B1 VL with T25A, K45R, G92N
notes: humanized mAb; also called 155z8
B16: Hu155A9B1-9 (antibody, V domains shown)
VH: B1 VH with I34V, I51V, T96A, R104S
VL: B1 VL with T25A, K45R, G92N
notes: humanized mAb
B17: Hu155A9B1-10 (antibody, V domains shown)
VH: B1 VH with I34V, I51V, R104S
VL: B1 VL with T25A, K45R, G92N
notes: humanized mAb
B18: Hu155A9B1-11 (antibody, V domains shown)
VH: B1 VH with G27F, I34V, I51V, F78A, R104S
VL: B1 VL with T25A, K45R, G92N
notes: humanized mAb
B19: Hu155A9B1-12 (antibody, V domains shown)
VH: B1 VH with G27F, I29L, S30T, I34V, I51V, F78A, R104S
VL: B1 VL with T25A, K45R, G92N
notes: humanized mAb
B20: Hu155A9B1-13 (antibody, V domains shown)
VH: B1 VH with I34V, V37I, M48I, I51V, L67V, R71V, T96A, R104S
VL: B1 VL with T25A, K45R, Y87F, G92N
notes: humanized mAb
B21: Hu155A9B1-14 (antibody, V domains shown)
VH: B1 VH with I34V, M48I, I51V, L67V, T96A, R104S
VL: B1 VL with T25A, K45R, Y87F, G92N
notes: humanized mAb
B22: Hu155A9B1-15 (antibody, V domains shown)
VH: B1 VH with I34V, I51V, T96A, R104S
VL: B1 VL with T25A, K45R, Y87F, G92N
notes: humanized mAb
B23: Hu155A9B1-16 (antibody, V domains shown)
VH: B1 VH with I34V, I51V, R104S
VL: B1 VL with T25A, K45R, Y87F, G92N
notes: humanized mAb; also called 155z16
B24: Hu155A9B1-17 (antibody, V domains shown)
VH: B1 VH with G27F, I34V, I51V, F78A, R104S
VL: B1 VL with T25A, K45R, Y87F, G92N
notes: humanized mAb
B25: Hu155A9B1-18 (antibody, V domains shown)
VH: B1 VH with G27F, I29L, S30T, I34V, I51V, F78A, R104S
VL: B1 VL with T25A, K45R, Y87F, G92N
notes: humanized mAb

Biological target: T1, recombinant CD3D&E protein (human CD3-his tag) (human, UniProt P04234 22-105; P07766 23-126, limits assumed)
T1 construct: Analyte in Biacore; also called CD3D&E-His; CD3d&ε-His
T1 sequence (P04234 22-105 limits assumed, chain 1 of 2): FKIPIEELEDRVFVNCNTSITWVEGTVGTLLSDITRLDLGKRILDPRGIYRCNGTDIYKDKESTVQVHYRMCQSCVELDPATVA
T1 sequence (P07766 23-126 limits assumed, chain 2 of 2): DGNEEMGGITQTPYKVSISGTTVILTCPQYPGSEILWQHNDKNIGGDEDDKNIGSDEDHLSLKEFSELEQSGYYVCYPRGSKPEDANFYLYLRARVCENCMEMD
Test: SPR Biacore, Ab captured on Protein A;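 note: humanized antibodies on a Protein A chip, human CD3-his analyte flowed over in serial dilutions for 3 min, dissociation tracked 120–360 s on a Biacore T200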

Binder	Kd [nM]	koff [s⁻¹]	kon [M⁻¹ s⁻¹]
B1	70.5	0.0568	806000
B2	11.4	0.00106	93000
B3	13.5	0.00107	79400
B4	29.6	0.0103	349000
B5	51.7	0.053	1.02e+06
B6	76.2	0.0151	198000
B7	61.9	0.111	1.8e+06
B8	11.1	0.00106	95400
B9	12.5	0.00107	85400
B10	40.4	0.00441	109000
B11	15.8	0.00704	445000
B12	15.8	0.00648	409000
B13	61.4	0.00637	104000
B14	13.5	0.00547	406000
B15	70.2	0.0159	226000
B16	55	0.0155	282000
B17	80.5	0.015	187000
B18	44.1	0.00306	69300
B19	51.2	0.00286	55900
B20	12.6	0.00354	280000
B21	79.2	0.0187	236000
B22	53.5	0.0152	285000
B23	95.6	0.0165	173000
B24	43.6	0.00307	70400
B25	51.4	0.00291	56600

Biological target: T2, human CD3 on cells (human PBMC; Jurkat TCR/CD3 NFAT reporter cells) (human, UniProt P07766 23-207; P04234 22-171; P09693 23-182)
T2 sequence (P07766 23-207, chain 1 of 3): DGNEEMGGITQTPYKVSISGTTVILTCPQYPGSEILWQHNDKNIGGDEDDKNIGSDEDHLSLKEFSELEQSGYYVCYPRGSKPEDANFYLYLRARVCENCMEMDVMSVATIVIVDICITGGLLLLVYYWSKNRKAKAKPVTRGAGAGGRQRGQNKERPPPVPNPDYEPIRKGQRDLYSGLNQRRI
T2 sequence (P04234 22-171, chain 2 of 3): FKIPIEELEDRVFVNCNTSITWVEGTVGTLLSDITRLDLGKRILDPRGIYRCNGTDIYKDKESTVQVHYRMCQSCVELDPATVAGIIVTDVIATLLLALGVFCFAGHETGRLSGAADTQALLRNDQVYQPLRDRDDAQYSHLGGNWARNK
T2 sequence (P09693 23-182, chain 3 of 3): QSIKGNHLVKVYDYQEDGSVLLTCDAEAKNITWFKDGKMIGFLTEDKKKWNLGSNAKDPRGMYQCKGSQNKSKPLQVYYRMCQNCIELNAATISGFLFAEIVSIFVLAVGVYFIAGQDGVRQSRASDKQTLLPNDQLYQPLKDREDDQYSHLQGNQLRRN
Test: cell-based or functional assay

Binder	% of SP34 [%]	Emax
B1	73.9	4080
B2	81	4470
B3	87.5	4830
B4	23.2	1280
B5	74.9	4140
B6	75.2	4150
B7	71.9	3970
B8	77.2	4260
B9	88.8	4900
B10	14.2	720
B11	12.9	656
B12	14.8	752
B13	79.9	4050
B14	22.6	1140
B15	26.2	1330
B16	34.9	1770
B17	24	1380
B18	78.4	4500
B19	72.4	4160
B20	18.4	1060
B21	19.1	1100
B22	20.1	1150
B23	21.6	1240
B24	76	4370
B25	74	4250

Biological target: T3, human CD3 protein (human, UniProt P07766 23-126; P04234 22-105)
T3 construct: ELISA coating protein; also called Human CD3D & CD3E Heterodimer Protein
T3 sequence (P07766 23-126 limits assumed, chain 1 of 2): as the sequence (P07766 23-126 limits assumed, chain 2 of 2) above
T3 sequence (P04234 22-105 limits assumed, chain 2 of 2): as the sequence (P04234 22-105 limits assumed, chain 1 of 2) above
Test: ELISA, plate-coated CD3;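 note: binding to plate-immobilized human CD3 protein, bound antibody detected with peroxidase-labelled anti-human IgG and TMB, read as absorbance at 450 nm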

Binder	EC50 [ng/mL]
B1	3.44
B2	3.05
B3	2.69
B4	6.38
B5	3.06
B6	3.03
B7	3.44
B8	2.89
B9	2.82
B10	428
B11	26.4
B12	16.4
B13	3.27
B14	136
B15	5.84
B16	6.28
B17	6.04
B18	3.2
B19	3.35
B20	124
B21	5.66
B22	6.51
B23	7.28
B24	3.07
B25	1.95

Biological target: T2, human CD3 on cells (human PBMC; Jurkat …)
Test: cell-based or functional assay
Remark: another data set of the same source

Binder	CD3-NFAT Activity by CD3 mAb [% SP34]
B1	> 50
B2	> 50
B3	> 50
B4	≤ 50
B5	> 50
B6	> 50
B7	> 50
B8	> 50
B9	> 50
B10	≤ 50
B11	≤ 50
B12	≤ 50
B13	> 50
B14	≤ 50
B15	≤ 50
B16	≤ 50
B17	≤ 50
B18	> 50
B19	> 50
B20	≤ 50
B21	≤ 50
B22	≤ 50
B23	≤ 50
B24	> 50
B25	> 50
